The target in assay [1] is IL5 (human) (UniProt P05113). Briefly: flow cytometry blocking IL5/IL5R.
In assay [2] the target is IL5 (human) (UniProt P05113). The assay is described as follows: ELISA. In general terms: ELISA stands for enzyme-linked immunosorbent assay.
The target in assay [3] is IL5 (human) (UniProt P05113). Briefly: flow cytometry blocking IL5/IL5R. The source holds these as a separate data set. (A flow cytometer gives signals particle by particle.)
The target in assay [4] is IL5 (human) (UniProt P05113). Briefly: Flow cytometry, blocking of IL5-biotin binding to HEK293F cells expressing IL5R.
Assay [5] has as its target IL5 (human) (UniProt P05113). The assay is described as follows: cell-based or functional assay.

As to Control Ab Nucala, the results for the concentration for half-maximal inhibition (IC50) in assay [1] and in assay [3] were 2.96 µg/mL and 2.36 µg/mL, respectively. For the same substance, the EC50 (in general, the concentration at which the effect is half-maximal) in assay [2] amounted to 0.0563 µg/mL.
With Nucala (antibody), the IC50 – broadly, the concentration that gives 50% inhibition – in assay [4] was determined as 2.04 µg/mL. In assay [5], this substance gave an IC50 of inhibition of the proliferation of TF-1 cells induced by IL5 (CCK8, OD450) of 178 pM.
